Data reported in patent US20240010735A1 (EISAI R AND D MANAGEMENT, published 2024).

Tests used:
Assay in all cases: ELISA: Fc-His proteins (1 nM) captured on anti-6-His antibody, antibody B 10 µg/mL with human IgG 100 µg/mL, HRP anti-human kappa light chain antibody, OD450 as % of mouse EphA4-Fc-His
[1] = molecular target: T1, mouse EphA2 extracellular region-Fc-His protein (mouse, UniProt Q03145 26-538)
T1 construct: extracellular domain; Cloned into a pcDNA 3.1 vector separately from the other mouse Eph receptors; not shown: Fc; histidine tag

[2] = molecular target: T2, mouse EphA7 extracellular region-Fc-His protein (mouse; human, UniProt Q61772 28-555)
T2 construct: extracellular domain; not shown: Fc region of human IgG1; histidine tag
T2 sequence (looked up): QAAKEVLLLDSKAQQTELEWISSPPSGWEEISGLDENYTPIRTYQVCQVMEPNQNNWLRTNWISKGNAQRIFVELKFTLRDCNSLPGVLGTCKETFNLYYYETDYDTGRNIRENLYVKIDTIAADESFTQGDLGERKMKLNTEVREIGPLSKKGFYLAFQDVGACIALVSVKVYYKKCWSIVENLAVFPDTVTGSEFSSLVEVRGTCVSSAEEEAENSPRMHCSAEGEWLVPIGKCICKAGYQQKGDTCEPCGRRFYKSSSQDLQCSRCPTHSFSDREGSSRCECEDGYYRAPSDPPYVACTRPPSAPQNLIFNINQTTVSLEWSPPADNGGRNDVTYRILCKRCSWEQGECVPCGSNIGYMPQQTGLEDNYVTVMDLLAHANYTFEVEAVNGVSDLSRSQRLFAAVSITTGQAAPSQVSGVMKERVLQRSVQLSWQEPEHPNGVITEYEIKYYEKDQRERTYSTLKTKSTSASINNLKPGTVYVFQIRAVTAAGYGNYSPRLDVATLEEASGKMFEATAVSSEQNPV

[3] = molecular target: T3, mouse EphB2 extracellular region-Fc-His protein (mouse; human, UniProt P54763 19-543)
T3 construct: extracellular domain; not shown: Fc region of human IgG1; histidine tag
T3 sequence (looked up): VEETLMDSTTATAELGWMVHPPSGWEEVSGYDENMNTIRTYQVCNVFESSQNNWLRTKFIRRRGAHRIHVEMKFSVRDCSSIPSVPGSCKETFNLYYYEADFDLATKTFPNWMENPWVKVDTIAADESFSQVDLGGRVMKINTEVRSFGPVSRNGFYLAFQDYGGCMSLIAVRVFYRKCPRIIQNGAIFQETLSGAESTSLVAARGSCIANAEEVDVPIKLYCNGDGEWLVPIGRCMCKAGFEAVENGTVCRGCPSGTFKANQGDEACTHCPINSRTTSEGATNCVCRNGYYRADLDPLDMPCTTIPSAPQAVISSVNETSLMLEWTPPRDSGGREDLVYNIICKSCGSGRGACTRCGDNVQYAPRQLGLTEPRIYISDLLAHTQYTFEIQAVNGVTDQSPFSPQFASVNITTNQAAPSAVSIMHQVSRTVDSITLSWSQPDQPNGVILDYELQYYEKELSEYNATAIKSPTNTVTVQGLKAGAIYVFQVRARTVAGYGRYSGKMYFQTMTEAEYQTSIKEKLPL

[4] = molecular target: T4, mouse EphB6 extracellular region-Fc-His protein (mouse; human, UniProt O08644 33-591)
T4 construct: extracellular domain; not shown: Fc region of human IgG1; histidine tag
T4 sequence (looked up): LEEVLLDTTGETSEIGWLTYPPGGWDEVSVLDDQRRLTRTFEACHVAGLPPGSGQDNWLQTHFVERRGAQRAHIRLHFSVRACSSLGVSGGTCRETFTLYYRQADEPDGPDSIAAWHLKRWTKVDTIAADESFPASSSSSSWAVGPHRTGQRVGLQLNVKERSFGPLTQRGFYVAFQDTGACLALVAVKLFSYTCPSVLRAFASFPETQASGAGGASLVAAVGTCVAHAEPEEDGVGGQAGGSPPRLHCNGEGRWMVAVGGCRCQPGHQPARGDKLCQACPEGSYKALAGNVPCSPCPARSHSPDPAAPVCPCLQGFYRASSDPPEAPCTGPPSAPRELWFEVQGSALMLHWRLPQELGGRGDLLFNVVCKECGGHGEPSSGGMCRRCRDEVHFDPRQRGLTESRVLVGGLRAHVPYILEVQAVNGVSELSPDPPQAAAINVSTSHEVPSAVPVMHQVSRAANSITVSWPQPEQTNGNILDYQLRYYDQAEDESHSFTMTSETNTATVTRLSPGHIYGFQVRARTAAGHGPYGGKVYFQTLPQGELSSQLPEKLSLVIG

Measured: binding result

T1 sequence (Q03145 26-538): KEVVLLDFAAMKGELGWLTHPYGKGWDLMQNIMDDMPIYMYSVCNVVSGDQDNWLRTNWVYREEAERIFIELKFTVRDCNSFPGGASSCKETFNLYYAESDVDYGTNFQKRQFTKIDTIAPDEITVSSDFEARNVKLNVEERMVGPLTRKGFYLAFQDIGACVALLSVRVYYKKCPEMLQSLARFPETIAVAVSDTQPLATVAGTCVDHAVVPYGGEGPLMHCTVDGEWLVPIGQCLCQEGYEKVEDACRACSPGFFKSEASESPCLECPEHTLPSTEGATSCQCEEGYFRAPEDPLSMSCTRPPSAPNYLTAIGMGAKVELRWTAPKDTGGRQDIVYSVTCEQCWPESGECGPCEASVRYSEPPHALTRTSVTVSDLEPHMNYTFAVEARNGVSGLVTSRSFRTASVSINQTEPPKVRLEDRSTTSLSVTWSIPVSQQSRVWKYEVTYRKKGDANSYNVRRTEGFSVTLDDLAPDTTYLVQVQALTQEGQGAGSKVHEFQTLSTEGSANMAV

B1: humanized anti-EphA4 monoclonal antibody (antibody B) (antibody, human IgG2, V domains shown)
VH: QVQLVESGGGVVQPGRSLRLSCAVSGFSLTRFGVHWVRQAPGKGLEWVAVIWRGGSTDYNAAFMSRLTISKDNSKNTVYLQMNSLRAEDTAVYYCAKESLFGVYYDYGYYSMDYWGQGTTVTVSS
VL: DIQMTQSPSSLSASVGDRVTITCRASQEISGYLSWLQQKPGKAPKRLIYAASTLDSGVPSRFSGSRSGTEYTLTISSLQPEDFATYYCLQYASYPLTFGGGTKVEIKR
notes: expressed in Expi293F cells; also called humanized antibody of antibody A; HK2-42 / L1-8
no binding (tested: 10 µg/mL): [1] | [2] | [3] | [4]
